Reference: the nanobody polyreactivity screen of Harvey et al. (2022)

Experiment: yeast display, Sf9 membrane polyspecificity reagent, FACS + sequencing; frameworks hold sequencing errors
Summary of the method: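 Genes from sorted yeast were amplified by colony PCR, read by MiSeq 2 × 250 sequencing and filtered on CDR length. These cells carried a synthetic nanobody library in Saccharomyces cerevisiae BJ5465 and were sorted by FACS into low and high (top ~1%) gates on anti-HA and streptavidin fluorescence. Polyreactivity is labelled according to the gate of origin.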

Row | Sequence | polyreactivity (PSR sort gate)
1 | QVQLVESGGGLVQAGGSLRLSCAASGLIFTRYAMGWYRQAPGKERELVAAISYSGTSTYYADSVKGRFTISRDNAKNTVYLQMNSLKPEDTAVYYCAAAYSRGSGVGRYRLDYWGQGTQVTVSS | high polyreactivity
2 | QVQLVESGGGLVQAGGSLRLSCAASGLIFTWNAMGWYRQAPGKEREFVAAISTGGSTSYADSVKGRFTISRDNAKNTVYLQMNRLKPEDTAVYYCARDSSIWSHGSWYDYWGQGTQVTVSS | low polyreactivity
3 | QVQLVESGGGLVQAGGSLRLSCAASGLIFTYYAMGWYRPAPGKERELVASINYSGGSTYYADSVKGRFTISRDNAKNSVYLHMNSLKPEDTAVYYCAARRVTQTEGPMGYWGQGTQVTVSS | low polyreactivity
4 | QVQLVESGGGLVQAGGSLRLSCAASGLIFVAFAMGWYRQAPGKERELVAAISRSGGSTYYADSVKGRFTISRDNAKNTVYLQMNSLKPEDTAVYYCAKYYGARHVDDDYWGQGTQVTVSS | high polyreactivity
5 | QVQLVESGGGLVQAGGSLRLSCAASGLIFVANAMGWYRQAPGKERELVAAISRSGGITYYADSVKGRFTISRDNAKNTVYLQMNSLKPEDTAVYYCAAELVYFFIYDYWGQGTQVTVSS | low polyreactivity
6 | QVQLVESGGGLVQAGGSLRLSCAASGLIFVAYAMGWYRQAPGKERELVAAISRNGGSTYYADSVKGRFTISRDNAKNTVYLQMNSLKPEDTAVYYCAARYAYYTARYTQVKGLDYWGQGTLVTVSS | high polyreactivity
7 | QVQLVESGGGLVQAGGSLRLSCAASGLIFVDYTMGWYRQAPGKERELVAGISNSGNTNYADSVKGRFTISRDNAKNTVYLQMNSLKPEDTAVYYCAAVYTWYPWYPYDYWGQGTQVTVSS | low polyreactivity
8 | QVQLVESGGGLVQAGGSLRLSCAASGLIFVKNTMGWYRQAPGKERELVAGISQRGGSTYYADSVKGRFTISRDNAKNSVYLQMNILKPEDTAVFYCAAYSRTFEGHRGGYWGQGTQVTVSS | high polyreactivity
9 | QVQLVESGGGLVQAGGSLRLSCAASGLIFVNYAMGWYRQAPGKERELVAAISVSGGSTYYADSVKGRFTISRDNAKNTVYLQMNSLNPEDTAVYYCNAYFRSQRYGYRVDYWGQGTQVTVSS | high polyreactivity
10 | QVQLVESGGGLVQAGGSLRLSCAASGLIFVRYAMGWYRQAPGKERELVATITWSGGTTYADSVKGRFTISRDNAKNTVYLQMNSLKPEDTAVYYCAVEWPAWTDSDYPVGGHAFGYWGQGTQVTVSS | low polyreactivity
11 | QVQLVESGGGLVQAGGSLRLSCAASGLIFVSYAMGWYRPAPGKERELVASITDSDSSTYYADSVKGRFTISRDNAKNTVYLQMNSLKPEDTAVYYCATGGRTEIWYPTLDYWGQGTQVTVSS | low polyreactivity
12 | QVQLVESGGGLVQAGGSLRLSCAASGLIFVWYAMGWYRQAPGKERELVAAISWRGGTRYYADSVKGRFTISRDNAKNTVYLQMTSLKPEDTAVYYCARDPDTYFFPPNGYYSSGFDSWGQGTQVTVSS | low polyreactivity
13 | QVQLVESGGGLVQAGGSLRLSCAASGLIFVWYAMGWYRQAPGKERELVAAISWRGGTTYYADSVKGRFTISRDNAKNTVYLQMNSLKPEDTAVYYCNAVGSQVDYLRYVWYDMDYWGQGTQVTVSS | low polyreactivity
14 | QVQLVESGGGLVQAGGSLRLSCAASGLIFWHYAMGWYIQAPGKERELVARISYGGGSTYYADSVKGRFTISRDNAKNTVYLQMISLKPEDTSVYYCNAKYYSVSQYYWGQGTQVTVSS | high polyreactivity
15 | QVQLVESGGGLVQAGGSLRLSCAASGLIFWQYAMGCYRQAPGKERELVAAISIGGSTNYADSVKGRFTISRDNAKNTVYFQMNSLKPEDTAVYYCNAAFLRQVWAGYNYWGQGTQVTVSS | high polyreactivity
16 | QVQLVESGGGLVQAGGSLRLSCAASGLIFYAYAMGWYRQAPGKERELVAAISGSGGNTYYADSVKGRFTISRDNAKNTVYLQMNSLKPEDTAVYYCAADYTAAYPDSMYYWGQGTQVTVSS | low polyreactivity
17 | QVQLVESGGGLVQAGGSLRLSCAASGLIFYDNMGWYRQAPGKERELVAAISSSGGSTSYADSVKGRFTISRDNAKNTVYLQMNSLKPEDTAVYYCAAQYPAYYTNSYWGQGTQVTVSS | low polyreactivity
18 | QVQLVESGGGLVQAGGSLRLSCAASGLIFYDNMGWYRQAPGKERELVAAISSSGGSTSYAYSVKGRFSISRDNAKYTVYLQMISLKREDTAVYYCAADSYRAYLGFVGFDYWGQGTQVTVSS | low polyreactivity
19 | QVQLVESGGGLVQAGGSLRLSCAASGLIFYFYVMGWYRQAPGKERELVAGIDTGSSTNYADSVKGRFTISRDNAKNTVYLQMNSLKPEDTAVYYCAADSVSKYGSDYWGQGTQVTVSS | low polyreactivity
20 | QVQLVESGGGLVQAGGSLRLSCAASGLIFYGNAMGWYREAPGKERELVAAISRRGGRTYYADSVKGRFTISRDNAKKSVYLQMHSLKPEDTAVYYCAAGVPKNGQAGYDYWGQGTQVTVSS | high polyreactivity
21 | QVQLVESGGGLVQAGGSLRLSCAASGLIFYHNAMRWYRQAPGKERELVAAMTASGGSTYYADSVKGRFTISRDNAKNTVYLQMNSLKPEDTAVYYCAADGPLDSDLDYWGQGTQVTVSS | low polyreactivity
22 | QVQLVESGGGLVQAGGSLRLSCAASGLIFYKNAMGWYRQAPGKEREFVAAISRSGASTYYADSVKARFTISRDNAKNTVYLQMNSLKPEDTAVYYCAARAGANYRMDYWGQGTQVTVSS | high polyreactivity

Row | Sequence | polyreactivity (PSR sort gate)
23 | QVQLVESGGGLVQAGGSLRLSCAASGLIFYLYAMGWYRQAPGKEREFVAAITTSGGSTHYADSVKGRFTISRDNAKNTVYLQMNSLKPEDTAVYYCAADDYFHGPGLEFDYWGQGTQVTVSS | low polyreactivity
24 | QVQLVESGGGLVQAGGSLRLSCAASGLIFYPYAMGWYRQAPGKERELVAAITSGDSTYYADSVKGRFTISRDNAKNTVYLQMNSLKPEDTAVYYCNADASYYYYHSDTVYGFDYWGQGTQVTVSS | low polyreactivity
25 | QVQLVESGGGLVQAGGSLRLSCAASGLIFYPYAMGWYRQAPGKERELVAGISSSGDSTYYADSVKGRFTISRDNAKNTVYLQMNSLKPEDNAVYYCNTGWDPYGYDYWGQGTQVTVSS | low polyreactivity
26 | QVQLVESGGGLVQAGGSLRLSCAASGLIFYQYAMGWYRQAPGKERELVAAINWSGGSTYYADSVKGRFTISRDNAKNTVYLQMNSLKPEDTAVYYCAADTAFRFALTRYRPMDYWGQGTQVTVSS | high polyreactivity
27 | QVQLVESGGGLVQAGGSLRLSCAASGLIFYRNAMGRTRQAPGKERELVAAISASGGRTYYADSVKGRFTISRDTEKNTVYLPMNSLKPEDTAVYYCAAKSLLLSMDYWGQGTQVTVSS | high polyreactivity
28 | QVQLVESGGGLVQAGGSLRLSCAASGLIFYRYAMGTTRQAPGKERELVATISGGGRTYYADSVKGRFTISRDNAKNTVYLQMNSLKPEDTAVYYCNADRQWYSIGSWEYDYWGQGTQVTVSS | high polyreactivity
29 | QVQLVESGGGLVQAGGSLRLSCAASGLIFYRYAMGWYRQAPGKERELVAAITASGGTTYYADSVKGRFTISRDNAKNTVYLQMNSLKPEDTAVYDCASPYTYWRRIGVDYDYWGQGTQVTVSS | high polyreactivity
30 | QVQLVESGGGLVQAGGSLRLSCAASGLIFYRYAMGWYRQAPGTEREMVAAITTNGARTYYADSVKGRFTISRDNAKNTVYLEMNSLKPEDTAVYYCAAYGAGKFWADHNYWGQGTQVTVSS | high polyreactivity
31 | QVQLVESGGGLVQAGGSLRLSCAASGLIFYSYAMGWYRQAPGKERELVAAITGGGSTNYADSVKGRFTISRDNAKNTVYLQMNSLKPEDTAVYYCAAAFTLRKYDYWGQGTQVTVSS | low polyreactivity
32 | QVQLVESGGGLVQAGGSLRLSCAASGLIFYYYAKGWYRQAPGKEREFVAAISRSGGITRYADSVKGRFTISRDNAKITVYLQMNSLKPEDTAVYYCAADDYPLTYDDYYWGQGTQVTVSS | high polyreactivity
33 | QVQLVESGGGLVQAGGSLRLSCAASGLIFYYYSMGWYRQAPGKERELVAAISGGGSTYYADSVKGRFTISRDNAKNTVYLQMNSLKPEDTAVYYCAADTRTSYYKDDYDYWGQGTQVTVSS | low polyreactivity
34 | QVQLVESGGGLVQAGGSLRLSCAASGLIFYYYTMGWYIQAPGKVRELVAAISSAGSTYYADSVKGRFTISRDNAKNTVYLQMNSLKPEDTEVYYCATRSQAQYTRYYGYRQFYYWGQGTQVTVSS | high polyreactivity
35 | QVQLVESGGGLVQAGGSLRLSCAASGLIFYYYVKGWYRQAPGKERELVAAISVIGDSTYYADSVKGRFTISRDNAKNTVYLQMNSLKPEDTAVYYCNADPWRWDRESRYEYWGQGTQVSVSS | high polyreactivity
36 | QVQLVESGGGLVQAGGSLRLSCAASGLIIGVYAMGWYRQAPGKERELVAAITDGGSTYYADSVKGRFTISRDNAKNTVYLQMNSLKPEDTAVYYCNKLYTRVGFTFEYWGQGTQVTVSS | low polyreactivity
37 | QVQLVESGGGLVQAGGSLRLSCAASGLIILPNAMGWYRQAPGKDRELVAAISSYDGSTYYADSVKGRFTISRDSAKNTVYLQMNSLKPEDTAVYYCAAGYYFQVEPDLVYIYSYEYWGQGTQVTVSS | low polyreactivity
38 | QVQLVESGGGLVQAGGSLRLSCAASGLIIRNYAMGWYRPAPGKERELVAAISYNGGSTYYADSVKGRFTISRDNAKNTVYLQMNSLKPEDTAVYYCAAYYGVGYRRYYYWGQGTQVTVSS | high polyreactivity
39 | QVQLVESGGGLVQAGGSLRLSCAASGLIIRWNAMGWYRQAPAKERELVAAINRGGSTYYADSVKGRFTISRDNAKNTVYLQMTSLKPEDTAVYYCAVGYAHSSNRRYYYKKTHGYWGQGTQVTVSS | low polyreactivity
40 | QVQLVESGGGLVQAGGSLRLSCAASGLIIWLYTMGWYRQAPGKERELVAAIDWSGGSTYYADSVKGRFTISRDNAKNTDYLQMNSLKPEDTAVYYCAADPEPSYRFDYCGQGTQVTVSS | low polyreactivity
41 | QVQLVESGGGLVQAGGSLRLSCAASGLILPDYAMGWYRQAPGKERELVAAISQRGGSTYYADSVKGRFTISRDNAKNSVYLQMYSLKPEDTAVYYCNALFRLRAYAEMDYWGQGTQVTVSS | high polyreactivity
42 | QVQLVESGGGLVQAGGSLRLSCAASGLILRGYAMGWYRQAPGKERELVAAISGSGGRTYYADSVKGRFTISRDNAKNTVYLQMNSLKPEDTAVYYCNKGGIREYDYWGQGTQVTVSS | high polyreactivity
43 | QVQLVESGGGLVQAGGSLRLSCAASGLILSSNAMGWYRQAPGKERELVAAITWDGDRTYADSVKGRFTISRDNAKNTVYLQMNSLKPEDTAVYYCAAPSYVSYDSEFGYWGQGTQVTVSS | low polyreactivity
